Source: doi:10.1101/2024.11.23.624830 (bioRxiv, 2024)

Target: the molecule itself
Assay: single-molecule photobleaching step analysis

B1: EmrE with a TC-tag (natural protein)
chain: MNPYIYLGGAILAEVIGTTLMKFSEGFTRLWPSVGTIICYCASFWLLAQTLAYIPTGIAYAIWSGVGIVLISLLSWGFFGQRLDLPAIIGMMLICAGVLIINLLSRSTPH
modifications: FlAsH dye bound covalently to the tetracysteine tag
stoichiometry N: 2
